Target: T1, HLA-A*2601 (human)
T1 construct: purified HLA molecule
Assay: inhibition of 125I-labelled probe peptide binding to purified HLA, gel filtration; standard peptide

IC50: 1 nM
Binder: ETFGFEIQSY [standard peptide ETFGFEIQSY]

— patent publication US20070014810A1 (published 2007)
